In PMC12192683, “The LDL receptor-related protein 1 (LRP1) facilitates ACE2-mediated endocytosis of SARS-CoV2 spike protein-containing pseudovirions” (The Journal of Biological Chemistry, 2025):

B1: LRP1 cluster III (domain or fragment)
chain: not shown
B2: LRP1 cluster IV (domain or fragment)
chain: not shown
B3: Soluble form of the VLDL receptor containing repeats 1 to 8 (domain or fragment)
chain: not shown
notes: also called VLDLR 1 to 8; recombinant soluble VLDLR
B4: LRP1 cluster II (domain or fragment)
chain: PQCQPGEFACANSRCIQERWKCDGDNDCLDNSDEAPALCHQHTCPSDRFKCENNRCIPNRWLCDGDNDCGNSEDESNATCSARTCPPNQFSCASGRCIPISWTCDLDDDCGDRSDESASCAYPTCFPLTQFTCNNGRCININWRCDNDNDCGDNSDEAGCSHSCSSTQFKCNSGRCIPEHWTCDGDNDCGDYSDETHANCTNQATRPPGGCHTDEFQCRLDGLCIPLRWRCDGDTDCMDSSDEKSCEGVTHVCDPSVKFGCKDSARCISKAWVCDGDNDCEDNSDEENCESLACRPPSHPCANNTSVCLPPDKLCDGNDDCGDGSDEGELC

Biological target: T1, SARS-CoV-2 spike protein S1 subunit (Val16-Arg685) fused to the Fc region of mouse IgG1 (SARS-CoV-2, UniProt P0DTC2 16-685)
T1 construct: The SPR methods name S1-mFc for LRP1, VLDLR and LRP2; I took it as the S1 subunit of all SPR experiments; also called S1-mFc; Spike S1 subunit; source: bought: Sino Biological; not shown: Fc (mouse IgG1), C-terminal, kept
Test: SPR; Biacore 3000; receptor amine-coupled to CM5 chip; ligand flowed in HBS-P (0.01 M HEPES pH 7.4, 0.15 M NaCl, 0.005% P20) with 1 mM CaCl2, 10 ul/min, 25 C; kinetic fit to a 1:1 Langmuir model
Conditions: both partners purified

Row | Binder | Kd | koff | kon
1 | B1 | 22 nM | 0.00027 s⁻¹ | 12000 M⁻¹ s⁻¹
2 | B2 | 67 nM | 0.00066 s⁻¹ | 9800 M⁻¹ s⁻¹
3 | B3 | 5 nM | 0.00027 s⁻¹ | 110000 M⁻¹ s⁻¹
4 | B4 | 33 nM | 0.00042 s⁻¹ | 13000 M⁻¹ s⁻¹
